In PMC10854676, “The Impact of Lens Epithelium-Derived Growth Factor p75 Dimerization on Its Tethering Function” (Cells, 2024):

B1: Flag-LEDGF/p75 E451R-E452R (natural protein)
chain: not shown
notes: LEDGF/p75 with two reverse-charge mutations in the α6-helix; source: E. coli BL21(DE3)pLysS, purified (heparin column, Superdex 75); not shown: Flag, N-terminal, kept
B2: His6-LEDGF_(345–530) (domain or fragment, UniProt O75475 345-530, looked up)
chain: ETSMDSRLQRIHAEIKNSLKIDNLDVNRCIEALDELASLQVTMQQAQKHTEMITTLKKIRRFKVSQVIMEKSTMLYNKFKNMFLVGEGDSVITQVLNKSLAEQRQHEEANKTKDQGKKGPNKKLEKEQTGSKTLNGGSDAQDGNQPQHNGESNEDSKDNHEASTKKKPSSEERETEISLKDSTLDN
notes: the plasmid has a TEV site after the His tag, a cleavage is not reported; source: E. coli BL21(DE3)pLysS, purified (Ni-NTA, heparin); not shown: His6, N-terminal, kept

Tests used:
Conditions in all cases: both partners purified
GST-LEDGF/p75 = target: T1, GST-LEDGF/p75 (UniProt O75475 1-530); assay: AlphaScreen or HTRF; direct titration or cross-titration of two differently tagged proteins at nanomolar concentrations (one partner fixed at 100-350 nM); no nuclease; protein batches held DNA at 2 µg/mL or lower
T1 construct: LEDGF/p75 (lens epithelium-derived growth factor p75), aa 1-530, expressed from pGEX-p75; also called GST-tagged LEDGF/p75; full-length GST-tagged LEDGF/p75; source: E. coli BL21(DE3)pLysS, purified as described before [24]; not shown: GST, N-terminal, kept

Flag-LEDGF_(1–426) = target: T2, Flag-LEDGF_(1–426) (UniProt O75475 1-426); assay: as above
T2 construct: LEDGF/p75 residues 1-426, truncation missing the complete C-term including the α6-helix; source: E. coli BL21(DE3)pLysS, purified (heparin column, Superdex 75); not shown: Flag, N-terminal, kept

[1] = target: B1; assay: as above
Flag-LEDGF/p75 WT [2] = target: T3, Flag-LEDGF/p75 WT (UniProt O75475 1-530); assay: as above
T3 construct: LEDGF/p75, aa 1-530, from the pCp-NAT-3xFlag-LEDGF WT construct; also called Flag-tagged LEDGF/p75; Flag-LEDGF_(1–530); source: E. coli BL21(DE3)pLysS, purified (heparin column, Superdex 75); not shown: 3xFlag, N-terminal, kept

His6-LEDGF_(345–530) = target: B2; assay: as above
Flag-LEDGF/p75 WT [3] = target: T3, Flag-LEDGF/p75 WT; assay: AlphaScreen or HTRF; competition: 150 nM GST-LEDGF/p75 and 150 nM Flag-LEDGF/p75 outcompeted by increasing concentrations of a third LEDGF construct; apparent IC50

Row | Binder | binding result (Flag-LEDGF_(1–426)) | binding result (Flag-LEDGF/p75 WT [2]) | IC50 (Flag-LEDGF/p75 WT [3]) [nM] | further results
1 | B1 | – | – | – | binding result (GST-LEDGF/p75): binds
2 | MLL1_(1–160)-GST (domain or fragment, UniProt Q03164 1-160, looked up, MLL1 residues 1-160; also called MLL1_(1–160) fragment; not shown: GST, C-terminal, kept) MAHSCRWRFPARPGTTGGGGGGGRRGLGGAPRQRVPALLLPPGPPVGGGGPGAPPSPPAVAAAAAAAGSSGAGVPGGAAAASAASSSSASSSSSSSSSASSGPALLRVGPGFDAALQVSAAIGTNLRRFRAVFGESGGGGGSGEDEQFLGFGSDEEVRVR | binds | binds | – | binding result [1]: binds
3 | MBP-LEDGF_(325–426) (domain or fragment, UniProt O75475 325-426, looked up, source: E. coli BL21(DE3)pLysS, purified (amylose resin); not shown: MBP, N-terminal, kept) EQQNKDEGKKPEVKKVEKKRETSMDSRLQRIHAEIKNSLKIDNLDVNRCIEALDELASLQVTMQQAQKHTEMITTLKKIRRFKVSQVIMEKSTMLYNKFKNM | – | – | – | binding result (His6-LEDGF_(345–530)): binds
4 | B2 | – | – | 222 | fold stronger binding than the mutants E451A and N454A-K455A (Flag-LEDGF_(1–426)): ~2 fold
5 | His6-LEDGF_(345–530) E451A (domain or fragment, UniProt O75475 345-530, looked up, source: E. coli BL21(DE3)pLysS, purified (Ni-NTA, heparin); not shown: His6, N-terminal, kept) ETSMDSRLQRIHAEIKNSLKIDNLDVNRCIEALDELASLQVTMQQAQKHTEMITTLKKIRRFKVSQVIMEKSTMLYNKFKNMFLVGEGDSVITQVLNKSLAEQRQHAEANKTKDQGKKGPNKKLEKEQTGSKTLNGGSDAQDGNQPQHNGESNEDSKDNHEASTKKKPSSEERETEISLKDSTLDN | binds | binds | – | –
6 | His6-LEDGF_(345–530) N454A-K455A (domain or fragment, UniProt O75475 345-530, looked up, source: E. coli BL21(DE3)pLysS, purified (Ni-NTA, heparin); not shown: His6, N-terminal, kept) ETSMDSRLQRIHAEIKNSLKIDNLDVNRCIEALDELASLQVTMQQAQKHTEMITTLKKIRRFKVSQVIMEKSTMLYNKFKNMFLVGEGDSVITQVLNKSLAEQRQHEEAAATKDQGKKGPNKKLEKEQTGSKTLNGGSDAQDGNQPQHNGESNEDSKDNHEASTKKKPSSEERETEISLKDSTLDN | binds | binds | – | –
7 | His6-LEDGF/p52 (natural protein, lacks the IBD and C-term; also called His6-tagged LEDGF/p52; source: E. coli BL21(DE3)pLysS, purified (Ni-NTA, heparin); not shown: His6, N-terminal, kept) not shown | – | – | 12.2 | –
8 | His6-LEDGF_(1–426) (domain or fragment, LEDGF/p75 residues 1-426 (lacks the C-term with the α6-helix); elsewhere LEDGF1-426 is Flag-tagged; source: E. coli BL21(DE3)pLysS, purified (Ni-NTA, heparin); not shown: His6, N-terminal, kept) not shown | – | – | 65.5 | –
